Measurements reported in patent US20160096894 (published 2016).
Numbering of substitutions follows the chain as printed. Each block holds one binder with its values, some of them ahead of it.

Tests used:
[1] = target: IGF-IR (human, UniProt P08069); experiment: competition, IGF-I blocking
[2] = target: T1, IGF-IR extracellular domain (human, UniProt P08069); experiment: SPR, protocol 1
[3] = target: T1, IGF-IR extracellular domain; experiment: SPR
[4] = target: T1, IGF-IR extracellular domain; experiment: SPR, protocol 2

B1: 2.12.1 (antibody, V domains shown)
VH: GRLGQAWRSLRLSCAASGFTFSDYYMSWIRQAPGKGLEWVSYISSSGSTRDYADSVKGRFTISRDNAKNSLYLQMNSLRAEDTAVYYCVRDGVETTFYYYYYGMDVWGQGTTVTVSS
VL: ASVGDRVTFTCRASQDIRRDLGWYQQKPGKAPKRLIYAASRLQSGVPSRFSGSGSGTEFTLTISSLQPEDFATYYCLQHNNYPRTFGQGTEVEIIR
IC50 [1]: 0.45 µg/mL
Kd [2]: 7.37 nM

B4: 2.13.2 (antibody, V domains shown)
VH: VQLLESGGGLVQPGGSLRLSCTASGFTFSSYAMNWVRQAPGKGLEWVSAISGSGGTTFYADSVKGRFTISRDNSRTTLYLQMNSLRAEDTAVYYCAKDLGWSDSYYYYYGMDVWGQGTTVTVSS
VL: DIQMTQFPSSLSASVGDRVTITCRASQGIRNDLGWYQQKPGKAPKRLIYAASRLHRGVPSRFSGSGSGTEFTLTISSLQPEDFATYYCLQHNSYPCSFGQGTKLEIK
IC50 [1]: 0.18 µg/mL
Kd [4]: 1.53 nM
Kd [2]: 3.5 nM

B5: 4.9.2 (antibody, V domains shown)
VH: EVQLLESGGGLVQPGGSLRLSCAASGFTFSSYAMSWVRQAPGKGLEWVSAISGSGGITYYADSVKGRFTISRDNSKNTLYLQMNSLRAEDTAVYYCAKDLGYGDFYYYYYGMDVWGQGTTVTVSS
VL: B4 VL with F7S, N31S, Y36F, R53K, S77R, C96L, S97T, Q100G, L104V
IC50 [1]: 0.1 µg/mL
Kd [4]: 0.427 nM
Kd [2]: 0.684 nM

Further lines, results first:

Kd [3]: 0.565 nM
B2: 6.1.1 (antibody, V domains shown)
VH: EVQLLESGGGLVQPGGSLRLSCAASGFTFSSYAMSWVRQAPGKGLEWVSGITGSGGSTYYADSVKGRFTISRDNSKNTLYLQMNSLRAEDTAVYYCAKDPGTTVIMSWFDPWGQGTLVTVSS
VL: RATLSCRASQSVRGRYLAWYQQKPGQAPRLLIYGASSRATGIPDRFSGSGSGTDFTLTISRLEPEDFAVFYCQQYGSSPRTFGQGTKVEIK

Kd [3]: 13 nM
B3: 4.17.3 (antibody, V domains shown)
VH: PGLVKPSETLSLTCTVSGGSISSYYWSWIRQPPGKGLEWIGYIYYSGSTNYNPSLKSRVTISVDTSKNQFSLKLSSVTAADTAVYYCARTYSSSFYYYGMDVWGQGTTVTVSS
VL: GDRVTITCRASQSISTFLNWYQQKPGKAPKLLIHVASSLQGGVPSRFSGSGSGTDFTLTISSLQPEDFATYYCQQSYNAPLTFGGGTKVEIK

Kd [3]: 0.641 nM
B6: 2.14.3 (antibody, V domains shown)
VH: GPGLVKPSETLSLTCTVSGGSISNYYWSWIRQPAGKGLEWIGRIYTSGSPNYNPSLKSRVTMSVDTSKNQFSLKLNSVTAADTAVYYCAVTIFGVVIIFDYWGQGTLVTVSS
VL: SSLSASVGDRVTFTCRASQDIRRDLGWYQQKPGKAPKRLIYAASRLQSGVPSRFSGSGSGTEFTLTISSLQPEDFATYYCLQHNNYPRTFGQGTEVEIIR
